According to article PMC8570342, “Identification of an Isoflavonoid Transporter Required for the Nodule Establishment of the Rhizobium-Fabaceae Symbiotic Interaction” (Frontiers in Plant Science, 2021):

Substrate: O=c1c(-c2ccc(O)cc2)coc2cc(O)cc(O)c12
Test: 3H-genistein uptake into yeast microsomal vesicles, rapid filtration, Hanes-Woolf plot
Format: biochemical, Lupinus albus
Conditions: labelled compound, 5 mM ATP, 10 mM MgCl2, 0.1 M KCl, pH 7.4, 30 s, empty-vector uptake subtracted, proton-driven
Description: 3H-genistein uptake into yeast microsomal vesicles, rapid filtration, Hanes-Woolf plot on LaMATE2 | LaMATE2 mediates an efficient transport of genistein which was characterized by a saturable kinetic

B1: LaMATE2 (Lupinus albus) (protein)
chain: MEESLIPKQVEQKTERYNEEKQKHKVTWNSFSEEMKRICVVAGPMVIVISSQYLLQVVSTMMVGHLGELYLSSAALAISLSSVTGFSLIMGMASGLETICGQAFGGKQYKRIGTQTYTAILSLTLVSFVLSLLWINMERILVFIGQDPLIAHESGKFIIWLIPALFAYAIMQPLVRYFQMQSLLFPMLISSLVALCIHIPLCWALVYKTRLHNVGGALALGISNWSNVIFLALYMRYSSACAKTRAPISMELFHGIWEFFRFAVPSALMICLEWWSFELLVLLSGLLPNPQLETSVLSVCLNTISTLYTIPFGIGAAASTRVSNELGAGNPHTARIAVLAAMSLAVLETCVVTGTLFACRHIFGYIFSNEKEVVDYVTLMAPLVCISVILDSLQGVLTGIARGCGWQHLGVYVNLGAFYLLGIPAAATLAFWFKLRGKGLWIGIQVGSFVQTLLLSIITSGINWEQQANKAKYRLLEDESSAENSLA
notes: full ORF in pNEV, no tag stated; expressed in Saccharomyces cerevisiae YPH499, microsomal membrane vesicles; 12 predicted transmembrane helices
  Km: 16.2 µM
